According to patent publication US20250346644A1 (LATTICON SUZHOU BIOPHARMACEUTICALS, published 2025):
Like-named read-outs stand apart in the source and are kept apart here.

Columns and labels:
[1] = molecular target: T1, hIL2Rα/β/γ complex (human, UniProt P01589 22-213; P14784 27-239; P31785 23-254); assay: BLI (ForteBio): biotin-CD25 on an SA sensor, CD122 step, then sample together with CD132
T1 construct: assembled in the BLI assay from bought subunits; also called hIL2Rα/o/γ complex
T1 sequence (looked up) 1: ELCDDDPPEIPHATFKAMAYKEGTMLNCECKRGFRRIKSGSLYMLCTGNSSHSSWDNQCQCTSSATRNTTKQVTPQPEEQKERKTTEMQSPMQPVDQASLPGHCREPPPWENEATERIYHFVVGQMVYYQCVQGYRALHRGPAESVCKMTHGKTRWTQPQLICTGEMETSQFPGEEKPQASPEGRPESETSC
T1 sequence (looked up) 2: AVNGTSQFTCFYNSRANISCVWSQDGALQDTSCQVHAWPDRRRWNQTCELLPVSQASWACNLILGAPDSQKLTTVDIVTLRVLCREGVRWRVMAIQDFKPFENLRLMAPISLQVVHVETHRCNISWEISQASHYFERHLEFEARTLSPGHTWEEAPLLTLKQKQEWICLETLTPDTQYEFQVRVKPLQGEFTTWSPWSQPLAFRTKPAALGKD
T1 sequence (looked up) 3: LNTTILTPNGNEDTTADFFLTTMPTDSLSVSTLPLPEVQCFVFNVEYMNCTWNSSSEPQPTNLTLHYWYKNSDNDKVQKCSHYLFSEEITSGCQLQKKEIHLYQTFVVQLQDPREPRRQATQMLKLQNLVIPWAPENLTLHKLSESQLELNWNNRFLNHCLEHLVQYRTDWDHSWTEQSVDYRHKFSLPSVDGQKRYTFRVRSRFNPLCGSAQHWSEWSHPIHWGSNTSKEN

[2] = molecular target: T2, high-affinity IL2R expressed on the surface of CTLL-2 cells; assay: cell-based or functional assay
T2 sequence (P01590 whole entry, species assumed, looked up): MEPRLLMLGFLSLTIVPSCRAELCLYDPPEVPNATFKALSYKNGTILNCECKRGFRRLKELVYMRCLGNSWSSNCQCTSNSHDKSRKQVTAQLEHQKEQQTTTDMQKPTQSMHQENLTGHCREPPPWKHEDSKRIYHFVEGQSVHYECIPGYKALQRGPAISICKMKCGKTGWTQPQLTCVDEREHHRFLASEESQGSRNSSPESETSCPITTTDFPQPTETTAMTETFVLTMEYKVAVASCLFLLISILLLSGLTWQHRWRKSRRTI
T2 sequence (P16297 whole entry, species assumed, looked up): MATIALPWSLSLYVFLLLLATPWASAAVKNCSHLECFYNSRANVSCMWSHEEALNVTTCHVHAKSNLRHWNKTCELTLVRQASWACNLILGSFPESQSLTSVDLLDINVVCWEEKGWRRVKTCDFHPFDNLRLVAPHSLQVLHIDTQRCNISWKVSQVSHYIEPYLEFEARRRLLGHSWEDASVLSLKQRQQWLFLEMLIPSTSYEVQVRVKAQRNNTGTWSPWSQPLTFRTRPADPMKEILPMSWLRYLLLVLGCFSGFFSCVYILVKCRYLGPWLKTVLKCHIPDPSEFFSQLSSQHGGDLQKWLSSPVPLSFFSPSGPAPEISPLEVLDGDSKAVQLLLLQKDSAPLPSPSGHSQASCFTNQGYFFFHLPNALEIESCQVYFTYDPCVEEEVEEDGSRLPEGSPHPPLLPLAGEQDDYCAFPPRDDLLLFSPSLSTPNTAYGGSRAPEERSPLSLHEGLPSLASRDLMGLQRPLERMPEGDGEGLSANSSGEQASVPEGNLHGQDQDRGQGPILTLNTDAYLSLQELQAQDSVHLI
T2 sequence (P34902 whole entry, species assumed, looked up): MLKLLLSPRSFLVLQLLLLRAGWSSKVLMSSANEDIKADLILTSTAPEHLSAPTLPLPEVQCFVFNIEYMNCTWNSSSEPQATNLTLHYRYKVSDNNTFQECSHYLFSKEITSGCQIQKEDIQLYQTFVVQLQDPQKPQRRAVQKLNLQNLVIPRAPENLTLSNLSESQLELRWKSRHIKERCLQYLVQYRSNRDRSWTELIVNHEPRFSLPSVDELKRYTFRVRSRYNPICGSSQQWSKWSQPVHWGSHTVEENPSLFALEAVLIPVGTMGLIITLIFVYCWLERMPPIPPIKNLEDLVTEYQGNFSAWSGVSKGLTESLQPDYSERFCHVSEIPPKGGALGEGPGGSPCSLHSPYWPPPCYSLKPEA

[3] = molecular target: T3, hIL2Rβ/γ on CD25-knockout NK-92 cells (human, UniProt P14784 27-551; P31785 23-369); assay: cell-based or functional assay
T3 sequence (looked up) 1: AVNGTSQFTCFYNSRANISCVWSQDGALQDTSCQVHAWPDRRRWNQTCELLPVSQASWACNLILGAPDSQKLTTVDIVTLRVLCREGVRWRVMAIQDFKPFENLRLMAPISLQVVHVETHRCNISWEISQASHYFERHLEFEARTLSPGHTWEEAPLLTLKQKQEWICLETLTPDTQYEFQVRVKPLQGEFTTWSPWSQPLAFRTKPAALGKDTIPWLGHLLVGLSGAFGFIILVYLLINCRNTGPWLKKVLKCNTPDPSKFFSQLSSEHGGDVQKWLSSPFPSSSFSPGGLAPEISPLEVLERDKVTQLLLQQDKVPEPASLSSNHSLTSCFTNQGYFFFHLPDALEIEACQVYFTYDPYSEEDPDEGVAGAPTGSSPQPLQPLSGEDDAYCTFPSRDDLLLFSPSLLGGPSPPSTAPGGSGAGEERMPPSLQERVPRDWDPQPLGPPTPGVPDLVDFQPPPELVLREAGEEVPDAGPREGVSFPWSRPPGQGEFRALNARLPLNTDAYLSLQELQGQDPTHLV
T3 sequence (looked up) 2: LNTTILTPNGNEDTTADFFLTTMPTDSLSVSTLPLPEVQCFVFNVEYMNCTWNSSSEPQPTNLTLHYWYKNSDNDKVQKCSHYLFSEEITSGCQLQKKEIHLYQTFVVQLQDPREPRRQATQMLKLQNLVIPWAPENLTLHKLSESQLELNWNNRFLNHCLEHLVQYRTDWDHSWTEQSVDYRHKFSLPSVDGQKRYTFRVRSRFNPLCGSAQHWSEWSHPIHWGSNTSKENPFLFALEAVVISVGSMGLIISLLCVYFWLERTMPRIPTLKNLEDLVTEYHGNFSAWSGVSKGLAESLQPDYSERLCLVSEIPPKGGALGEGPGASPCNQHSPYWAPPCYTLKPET

[4] = molecular target: T2, high-affinity IL2R expressed on the …; assay: cell-based or functional assay; remark: listed apart in the source
[5] = molecular target: T4, hIL2Rα (hCD25) (human, UniProt P01589 22-213, limits assumed); assay: BLI (ForteBio): biotin-CD25 on an SA sensor, buffer step, then sample
T4 construct: bought recombinant protein; also called hCD25 (Acro); biotin-CD25 (Acro)
T4 sequence (looked up): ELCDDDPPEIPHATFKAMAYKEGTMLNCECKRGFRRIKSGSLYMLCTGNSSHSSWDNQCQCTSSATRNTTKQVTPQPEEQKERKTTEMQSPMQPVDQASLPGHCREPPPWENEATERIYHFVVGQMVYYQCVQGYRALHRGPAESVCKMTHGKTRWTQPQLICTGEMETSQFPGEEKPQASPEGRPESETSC

[6] = molecular target: T5, hIL2Rα/β complex (human, UniProt P01589 22-213; P14784 27-239); assay: BLI (ForteBio): biotin-CD25 on an SA sensor, CD122 step, then sample together with CD122
T5 construct: assembled in the BLI assay from bought subunits; also called hIL2Rα/O complex
T5 sequence (looked up) 1: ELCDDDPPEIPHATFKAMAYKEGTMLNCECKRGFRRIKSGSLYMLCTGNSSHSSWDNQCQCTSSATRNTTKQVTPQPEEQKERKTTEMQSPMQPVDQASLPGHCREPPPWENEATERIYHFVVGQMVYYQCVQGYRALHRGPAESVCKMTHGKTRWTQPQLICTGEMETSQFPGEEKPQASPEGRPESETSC
T5 sequence (looked up) 2: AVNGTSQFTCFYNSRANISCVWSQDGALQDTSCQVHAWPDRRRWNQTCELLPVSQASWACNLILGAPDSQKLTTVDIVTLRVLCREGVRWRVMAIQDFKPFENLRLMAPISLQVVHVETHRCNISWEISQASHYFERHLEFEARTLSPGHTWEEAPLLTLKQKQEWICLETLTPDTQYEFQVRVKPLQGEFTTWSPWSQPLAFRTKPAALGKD

[7] = molecular target: FcγRIIIa-158F (UniProt P08637 17-208, limits assumed); assay: BLI (ForteBio), series of concentrations, not labelled on the sheet
[8] = molecular target: T6, FcγRIIa (UniProt P12318 36-218, limits assumed); assay: as above
T6 sequence (looked up): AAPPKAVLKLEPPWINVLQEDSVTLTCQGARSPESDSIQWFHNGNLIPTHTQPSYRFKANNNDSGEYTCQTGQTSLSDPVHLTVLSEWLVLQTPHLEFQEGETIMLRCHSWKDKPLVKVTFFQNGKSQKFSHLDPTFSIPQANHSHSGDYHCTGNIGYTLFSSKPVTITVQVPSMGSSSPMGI

[9] = molecular target: FcγRI (UniProt P12314 16-288, limits assumed); assay: as above
FcγRI, sequence (P12314 16-288 limits assumed): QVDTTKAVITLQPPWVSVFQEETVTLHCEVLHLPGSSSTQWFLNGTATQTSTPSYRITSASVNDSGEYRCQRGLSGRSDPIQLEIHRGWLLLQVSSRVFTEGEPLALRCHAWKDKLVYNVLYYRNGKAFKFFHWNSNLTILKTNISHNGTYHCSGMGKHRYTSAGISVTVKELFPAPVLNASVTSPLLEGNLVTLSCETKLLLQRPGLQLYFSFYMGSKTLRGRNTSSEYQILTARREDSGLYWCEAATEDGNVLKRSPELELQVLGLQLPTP

FcγRIIIa-158F, sequence (P08637 17-208 limits assumed): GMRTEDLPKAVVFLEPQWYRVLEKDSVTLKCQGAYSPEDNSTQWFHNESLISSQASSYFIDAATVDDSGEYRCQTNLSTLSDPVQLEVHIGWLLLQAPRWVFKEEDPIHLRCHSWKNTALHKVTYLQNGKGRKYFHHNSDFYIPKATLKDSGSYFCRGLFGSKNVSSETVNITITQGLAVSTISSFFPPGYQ

B1: K2G11-Cy05 (other)
chain: SSSTKKTQLQLEHLLLDLQMILNGINNYKNPKLTRMLTFKFYMPKKATELKHLQCLEEELGPLEEVLNLAQSKNFHLRPRDLISNIRVIVLELKGSETCFMCEYADETATIVEFLNRWITFLQSIISTLTGGGGSGGGGSGGGGSGGGGSQVQLVQSGAEVKKPGATVKISCKVSGDTITAYYMHWVRQAPGQGLEWIGRIDPDDDSTKYAENFKGRVTITADTSTDTAYMELSSLRSEDTAVYYCTTITFLYSRELRWFAYWGQGTLVTVSSASTKGPSVFPLAPSSKSTSGGTAALGCLVKDYFPEPVTVSWNSGALTSGVHTFPAVLQSSGLYSLSSVVTVPSSSLGTQTYICNVDHKPSNTKVDKRVEPKSCDKTHTCPPCPAPEFEGGPSVFLFPPKPKDTLMISRTPEVTCVVVDVSHEDPEVQFNWYVDGVEVHNAKTKPREEQYNSTYRVVSVLTVLHQDWLNGKEYKCKVSNKALPASIEKTISKAKGQPREPQVYTLPPSRDELTKNQVSLTCLVKGFYPSDIAVEWESNGQPENNYKTTPPVLDSDGSFFLYSKLTVDKSRWQEGNVFSCSVMHEALHNHYTQKSLSLSPGK
VL: DIVLTQSPATLSLSPGERATLSCQASQYISNYLSWYQQKPGQAPRLLIYSATSLASGIPARFSGSRCGTDFTLTISSLEPEDFAVYYCLQHYSTPYTFGQGTKLEIK
modifications: Engineered disulfide between chain 1 Cys99 (IL-2 T102C) and chain 2 Cys67 (S67C), as in Table 32 (LC: C67-HC: C99).
notes: hIL2-DM (Δ3, C125L) fused to the heavy chain of K2G11, disulfide IL:102-L:67
Q: Does B1 bind [1]?
A: no binding

Q: And the “Activity in Promoting CTLL-2 Cell Proliferation (EC50, nM)” value [2]?
A: 9.17 nM

Q: What about the “Activity in Promoting NK-92 (CD25-KO) Cell Proliferation (EC50, nM)” value [3] of the same binder?
A: 0.065 nM

Q: What about the “Activity in Promoting CTLL-2 Cell Proliferation (EC50, nM)” value [4] of the same binder?
A: 11.2 nM

Q: Does B1 bind [5]?
A: no binding

Q: Does B1 bind [6]?
A: no binding

B2: K2G11-pITM (antibody)
VH: QVQLVQSGAEVKKPGATVKISCKVSGDTITAYYMHWVRQAPGQGLEWIGRIDPDDDSTKYAENFKGRVTITADTSTDTAYMELSSLRSEDTAVYYCTTITFLYSRELRWFAYWGQGTLVTVSSASTKGPSVFPLAPSSKSTSGGTAALGCLVKDYFPEPVTVSWNSGALTSGVHTFPAVLQSSGLYSLSSVVTVPSSSLGTQTYICNVDHKPSNTKVDKRVEPKSCDKTHTCPPCPAPEFEGGPSVFLFPPKPKDTLMISRTPEVTCVVVDVSHEDPEVQFNWYVDGVEVHNAKTKPREEQYNSTYRVVSVLTVLHQDWLNGKEYKCKVSNKALPASIEKTISKAKGQPREPQVYTLPPSRDELTKNQVSLTCLVKGFYPSDIAVEWESNGQPENNYKTTPPVLDSDGSFFLYSKLTVDKSRWQEGNVFSCSVMHEALHNHYTQKSLSLSPGK
VL: DIVLTQSPATLSLSPGERATLSCQASQYISNYLSWYQQKPGQAPRLLIYSATSLASGIPARFSGSRSGTDFTLTISSLEPEDFAVYYCLQHYSTPYTFGQGTKLEIK
notes: K2G11 with pI (N203D/K274Q/Q419E) and TM (L234F/L235E/P331S) mutations, EU numbering, in the hIgG1 heavy chain constant region; also called humanized anti-IL-2 antibody K2G11-pITM; copies: 2 + 2
Q: Does B2 bind [7]?
A: no binding (tested: not printed on the sheet)

Q: Does B2 bind [8]?
A: no binding (tested: not printed on the sheet)

Q: Does B2 bind [9]?
A: no binding (tested: not printed on the sheet)
